The record followed here is patent US20210261685A1 (Alector, published 2021).

Test [1] deals with T1, cyno MerTK extracellular domain (ECD), recombinant (cynomolgus monkey, UniProt Q12866 21-505 (human entry)).
T1 construct: also called cynomolgus MerTK; not shown: polyHis tag or TEVS/Thrombin/murine IgG2a Fc tag
T1 chain: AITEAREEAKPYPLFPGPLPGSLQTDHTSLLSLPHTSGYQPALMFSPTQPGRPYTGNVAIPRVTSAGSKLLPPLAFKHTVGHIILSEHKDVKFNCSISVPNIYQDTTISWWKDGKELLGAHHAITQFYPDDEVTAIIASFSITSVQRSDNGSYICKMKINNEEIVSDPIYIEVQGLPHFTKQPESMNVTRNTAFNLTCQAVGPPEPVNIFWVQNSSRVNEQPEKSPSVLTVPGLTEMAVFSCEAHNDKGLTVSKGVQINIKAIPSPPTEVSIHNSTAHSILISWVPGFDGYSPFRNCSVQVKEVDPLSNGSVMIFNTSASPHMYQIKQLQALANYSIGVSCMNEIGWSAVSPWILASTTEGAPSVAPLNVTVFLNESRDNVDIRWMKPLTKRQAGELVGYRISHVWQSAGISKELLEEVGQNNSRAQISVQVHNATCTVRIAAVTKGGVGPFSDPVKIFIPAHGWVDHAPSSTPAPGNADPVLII
As to the kind of experiment: SPR, Carterra LSA, antibody immobilised. In short, it runs like this:
(§1)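 Anti-MerTK antibodies diluted to 10 μg/ml in 10 mM Acetate, pH 4.25 were amine-coupled in a 96-spot array onto an HC200M chip activated with MES/sulfo-NHS/EDC, then blocked with 1M Ethanolamine pH 8.5. On a Carterra LSA, recombinant MerTK extracellular domain was injected at 33.3, 100, and 300 nM in HBS-TE with 0.5 mg/ml BSA, lowest to highest without regeneration. KD came from fitted k-on and k-off.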

In test [2] the target is T2, human MerTK extracellular domain (ECD), recombinant (human, UniProt Q12866 21-505).
T2 construct: also called huMerTK; not shown: polyHis tag or TEVS/Thrombin/murine IgG2a Fc tag
T2 sequence: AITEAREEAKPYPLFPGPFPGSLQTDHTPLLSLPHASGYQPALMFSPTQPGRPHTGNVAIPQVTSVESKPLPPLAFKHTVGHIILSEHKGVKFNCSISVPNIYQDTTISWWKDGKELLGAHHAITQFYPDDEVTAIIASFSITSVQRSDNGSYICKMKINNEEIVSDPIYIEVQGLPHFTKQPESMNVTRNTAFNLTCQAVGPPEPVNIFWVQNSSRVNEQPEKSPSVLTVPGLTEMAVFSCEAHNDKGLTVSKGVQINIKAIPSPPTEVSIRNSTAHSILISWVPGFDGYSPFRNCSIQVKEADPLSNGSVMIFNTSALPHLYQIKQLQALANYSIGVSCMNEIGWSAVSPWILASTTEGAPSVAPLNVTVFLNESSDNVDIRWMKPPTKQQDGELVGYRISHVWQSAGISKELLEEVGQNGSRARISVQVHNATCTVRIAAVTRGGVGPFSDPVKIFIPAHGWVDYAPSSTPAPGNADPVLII
The test can be described thus: SPR, Carterra LSA, antibody immobilised. The method in brief: as §1
Background: In SPR one partner is held on a chip, and binding of the other changes the refractive index at the surface.

B1: MTK-13 (antibody, human IgG1, V domains shown)
VH: DVQLQESGPGLVKPSQSLSLTCSVTGYSITSGYYWNWIRQFPGNKLEWMGNIDYDGSNKYNPSLKNRISITRDTSKNHFFLKLNSVTPEDTATYFCARDGGNYRSFAYWGQGTLVTVSA
VL: QIVLTQSPPIMSASPGEKVTITCSASSSVSYMYWFQQKPGTSPKLWIYSTFNLASGVPARFSGSGSGTSYSLTISRMEAEDVATYYCQQRSSYPFTFGSGTKLEIK
As usually defined, the Kd is a measure of binding affinity in units of concentration. B1: the Kd in test [1] was 39 nM; in test [2] it was 37 nM.

B2: MTK-26 (antibody, human IgG1, V domains shown)
VH: AVQFQESGPGLVKLSQSLSLTCSVTGYSITSGYYWDWIRQFPGNKLEWMGYISYDGSNNYNPSLKNRISITRDTSKNQFFLKLNSVTTEDTATYYCAREGGYYRSMDYWGQGTSVTVSS
VL: QIVLTQSPAIMSASPGEKVTIACSASSSVSFMHWFQQKPGTSPRLWIYSTSNLASGVPARFSGSGSGTSYSLTISRMEAEDAATYYCQQRSSYPFTFGSGTKLEIK
Regarding B2, the Kd in test [1] and in test [2] was 30 nM in each case.

B3: MTK-35 (antibody, human IgG1, V domains shown)
VH: QVLLQQSGPELVKPGASVQLSCKASDYTFTSYDIHWVKQRPGQGLEWIGWIYPRDGYTKYNEIFKGKATLTVDTSSTTAYMELHSLTSEDSAVYFCARAYYTNWYYFDYWGQGTTLTVSS
VL: EIVLTQSPTTMAASPGEKITITCRASSSISSHYLHWYQQKPGFSPKLLIYRTSNLASGVPARFSGSGSGTSYSLTIGTMEAEDVATYYCQQGSTIPLTFGAGTKLVLK
Turning to B3, the Kd in test [1] was 13 nM; in test [2], 14 nM.

B4: MTK-27 (antibody, human IgG1, V domains shown)
VH: EVQLQQSGTELVRPGASVKLSCTASGFNIKDDYMHWVQQRPEQGLEWIGWIDPENGNTEYASKFQGKATITADASSNTAYLQLSSLTSEDTAVYYCSTLFSNYFDYWGQGTTLTVSS
VL: DIVMTQSQKFMSTSVGDRVSITCKASQNVRTSVAWYQQKPGQSPKALIYLASNRHTGVPDRFTGSGSGTDFTLTISNVRSEDLADYFCLQHWNYPYTFGGGTKLEIK
In the case of B4, the Kd in test [1] and in test [2] was 71 nM throughout.

B5: MTK-10 (antibody, human IgG1, V domains shown)
VH: QVTLKESGPGILQPSQTLSLTCSFSGFSLTTSGMGVGWIRQPSGKGLEWLAHIWSDDDKRSNPALKSRLTISQDSSTNQVFLKIASVDTADSATYYCSHLTPVREFAYWGPGTLVTVSE
VL: DIQMTQTTSSLSASLGDRVTISCSASQGISNYLNWFQQKPDGTVKLLIYYTSRLHSGVPSRFSGSGSGTDFSLTISNLEPEDIATYYCQQYTKLPYTFGGGTKLEIK
With B5, the equilibrium dissociation constant (Kd) in test [1] worked out at 1.9 nM; in test [2] it was 2 nM.

B6: MTK-28 (antibody, human IgG1, V domains shown)
VH: QIQLVQSGPELKKPGETVKISCKASGYTFTTYGMSWVKQAPGKGLKWMGWINTYSGVPTYADDFKGRFAFSLETSASTAYLQINTLKNEDTTTYFCARFLRYYYFDYWGQGTTLTVSS
VL: QIVLSQSPVILSASPGEKVTMTCRASSSVTYMHWYQQQPGSSPKPWIYATSNLASGVPARFSGSGSGTSYSLTISRVETEDAATYYCHQWSGNPTFGGGTKLEIN
For the molecule B6, the Kd in test [1] came out at 4.5 nM; in test [2] it was 4.1 nM.

B7: MTK-30 (antibody, human IgG1, V domains shown)
VH: QVQLQQPGTELVRPGASVKLSCKASGYTFTSYWMHWVKQRPGQGLEWIGNLNPNNGGTYYNEKFKSKATLTVDKSSSTAYMQLSSLTSEDSAVYYCARQILLYFDYWGQGTTLTVSS
VL: DVLMTQTPLSLPVSLGDQASISCRSSQSIVHSNGDTYLEWYLQKPGQSPKLLIYKVSNRFSGVPDRFSGSGSGTDFTLKISRVEAEDLGVYYCFQGSHVPWTFGGGTKLEIK
Take B7: the Kd in test [1] was determined as 24 nM; in test [2], 23 nM.

B8: MTK-31 (antibody, human IgG1, V domains shown)
VH: QIQLVQSGPELKKSGETVKISCKASGYTFTSYGMSWVKQAPGKGLKWMGWINTYSGVPTYADDFKGRFAFSLETSASTAYLQINNLKNEDTATYFCASLSYDGSLYHAMDYWGQGTSVTVSS
VL: DVSMTQTPLSLPVSLGDQASISSRSSQTIVHSNGNTYLEWYLQKPGQSPKLLIYKVSNRFSGVPDRFSGSGSGTDFTLKISRVEAEDLGVYYCFQGSHVPWTFGGGTKLEIK
For B8, the Kd in test [1] turned out to be 91 nM; in test [2], 81 nM.

B9: MTK-24 (antibody, human IgG1, V domains shown)
VH: QVQLQQPGAELVKPGASVKLSCKASGYTFTSYWMHWVKQRPGQGLEWIGMIHPNINTNYNEKFKSKATLTVDISSSTAYMQLSSLTSEDSAVYYCAKRSPYSNYDWYFDVWGTGTTVTVSS
VL: DIQMTQSPASLSVSVGETVTITCRASENIYSNLAWYQQKQGKSPQLLVYAATNLADGVPSRFSGSGSGTQYSLKINSLQSEDFGSYYCQHFWGTPLTFGAGTKLELK
Regarding B9, the Kd in test [1] stood at 44 nM; in test [2], 41 nM.

B10: MTK-32 (antibody, human IgG1, V domains shown)
VH: QIQLVQSGPELKKPGETVKISCKASGYTFTSYGMSWVHQAPGKGLKWLGWINTYSGVPTYADDFRGRFAFSLDTSVSTASLEINNLQNEDTATYFCAREDNWAWFAYWGQGTLVTVST
VL: QIVLSQSPAILSASPGEKVTMTCRATSSVGYMHWYQRKPGSSPKPWIYATSNLASGVPARFSGSGSGTSYSLTISRVEAEDAATYYCQQWSSNPRTFGGGTKLEIK
With B10, the figures for the Kd in test [1] and in test [2] were 107 nM and 59 nM, respectively.

B11: MTK-02 (antibody, human IgG1, V domains shown)
VH: QIQLVQSGPELKQPGETVKISCKASGYTFTDYGVNWVKQAPGKGLKWMGWINTYSGEPTYAGDFKGRFAFSLESSASTAFLQINNLKNEDMATYFCARRVRYWYFDVWGAGTSVTVSS
VL: QIVLSQSPAILSASPGERVTMTCRANSSVSYMHWYQQKPGSSPKPWIYATSNLASGVPARFSASGSGTSYSLTVSRVEAEDAATYYCQQWGSNPFTFGSGTKLEIK
In the case of B11, the Kd in test [1] was found to be 24 nM; in test [2] it was 22 nM.

B12: MTK-36 (antibody, human IgG1, V domains shown)
VH: QVTLKESGPGILQPSQTLSLTCSFSGFSLSTFGMGVGWIRQPSGKGLEWLAHIWWYDDKYYEPALKSRLTISKDSSKNQVFLKIANVDTADTATYYCARIYYGTSYRYFDVWGTGTTVTVSS
VL: QIVLSQSPAILSAFPGEKVTMTCRATSSVRYMHWYQQKPGSSPKPWIYATYNLTSGVPARFSGSGSGTSYSLTISRVEAEDAATYYCHQWSSNPYTFGGGTKLEIK
As to B12, the Kd in test [1] was determined as 5.9 nM; in test [2] it was 6.4 nM.

B13: MTK-14 (antibody, human IgG1, V domains shown)
VH: QIQLVQSGPELKKPGETVKISCKASGYTFTNYGMNWVKQAPGKDLQWMGWINTYTGEPTYADDFTGRFAFSLETSASTAYLQINNLKNEDTATYFCAKGGHYAWFAYWGQGTLVTVSA
VL: QIVLSQSPAILSASPGEKVTMTCRSSSSVSYMHWYQQKPGSSPKPWIYATSNLASGVPGRFSGSGSGTSYSLTISRVEAEDAATYYCQQWGSNPRTFGGGTKLEIK
Take B13: the Kd in test [1] is 53 nM; in test [2], 45 nM.

B14: MTK-08 (antibody, human IgG1, V domains shown)
VH: QIQLVQSGPELKKPGETVKISCKASGYTFTNYGMNWVKQAPGKGLKWMGWINTYTGEPTYADDFKGRFAFSLETSASTAYLQINNLKNEDTATYFCAREVRYWYFDVWGAGTTVTVSS
VL: QIVLSQSPAILSASPGEKVTMTCRATSSVSYMHWFQQKPGSSPKPWIYATSNLASGVPARFSGSGSGTSYSLTISRVEAEDAAAYYCQHWSGNPRTFGGGTKLEIK
B14: the Kd was 42 nM in test [1] and 37 nM in test [2].
